{"source": "paper PMC5392032", "about": "(Science Advances, 2017)", "proteins": {"B1": {"name": "Vps4^E233Q (ATP hydrolysis-deficient mutant of Saccharomyces cerevisiae vacuolar protein sorting-associated protein 4) (enzyme)", "chain": "KKSPSAGSGSNGGNKKISQEEGEDNGGEDNKKLRGALSSAILSEKPNVKWEDVAGLEGAKEALKEAVILPVKFPHLFKGNRKPTSGILLYGPPGTGKSYLAKAVATEANSTFFSVSSSDLVSKWMGESEKLVKQLFAMARENKPSIIFIDQVDALTGTRGEGESEASRRIKTELLVQMNGVGNDSQGVLVLGATNIPWQLDSAIRRRFERRIYIPLPDLAARTTMFEINVGDTPCVLTKEDYRTLGAMTEGYSGSDIAVVVKDALMQPIRKIQSATHFKDVSTEDDETRKLTPCSPGDDGAIEMSWTDIEADELKEPDLTIKDFLKAIKSTRPTVNEDDLLKQEQFTRDFGQEGN"}}, "target": "the molecule itself", "assay": "SEC-MALS", "data": [{"protein": "B1", "values": [{"measurement": "stoichiometry N", "result": 6}]}]}
